For 1 substance, K1 (two component Langmuir isotherm, configuration 1) and K2 (two component Langmuir isotherm, configuration 2) results are on record in article PMC6308133.

In this experiment the target is yeast Nsp1p FG-fragment Nsp1p-12FF (residues 262-492; 1xFG, 11xFSFG) (yeast) (UniProt P14907). Nature of the experiment: plasmonic nanopore sensing (shift of the extinction dip); cNsp1 grafted to the interior silicon nitride walls of smaller nanopores (upper diameter 80-90 nm, lower 50-60 nm); Kapβ1 added in increasing concentrations in PBS; equilibrium dip shift averaged over ~10 min; fit to a two component Langmuir isotherm.

On to “karyopherinβ1 (from UniProt Q14974 1-876) (natural protein)”, for which the K1 (two component Langmuir isotherm, configuration 1) came to 341 nM and the K2 (two component Langmuir isotherm, configuration 2) was determined as 3.8 µM.
